Biological target: Cry1Ac toxin (Bacillus thuringiensis, UniProt P05068 29-623, rhodamine label (5(6)-TAMRA SE) in the cell-staining assay; coupled to CNBr-activated Sepharose 4B in the affinity assay)
Assay: rhodamine-labeled toxin staining of fixed Sf21 cells, confocal microscopy

B1: Manduca sexta 120 kDa aminopeptidase N APN1a expressed in Sf21 cells transfected with pHSP120 (receptor)
chain: PSYRLPTTTRPRHYAVTLTPYFDVVPAGVSSLTTFSFDGEVTIYISPTQANVNEIVLHCNDLTIQSLRVTYVSGNSEVDITATGQTFTCEMPYSFLRIRTSTPLVMNQEYIIRSTFRGNLQTNMRGFYRSWYVDRTGKRWMATTQLQPGHARQAFPCYDEPGFKATFDITMNREADFSPTISNMPIRATTTLTNGRISETFFTTPLTSTYLLAFIVSHYQVISNNNNAARPFRIYARNNVGSQGDWSLEMGEKLLLAMENYTAIPYYTMAQNIDMKQAAIPDFSAGAMENWGLLTYREALILYDPLNSNHHYRQRVANIVSHEIAHMWFGNLVTCAWWDNLWLNEGFARFYQYYLTATVDPELGYEIRFIPEQLQVAMFSDSVDSAHALTDTSVNDPVAVSAHFSTITYARGAAILRMTQHLLSYDTFVKGLRQYLRARQFDVAEPYHLFSALDAAAAEDNALAAYTGITIDAYFRTWSEKAGHPLLSVTVDHETGRMTLVQARWERNTGVSRFPGLWHIPITWTRAGAPDFENLKPSQVMTGQSLVIDRGTRGQEWVIFNKQVSGFYRVNYDNTTWGLITRALRSANRTVIHELSRSQIVDDVFQLARSGVMSYQRALNILSYLRFEDAYAPWLSAISGFNWVIRRFAHDAANLQTLQNQIIGLSEAVVARLGFTEVSGGTYMTDLQRLHVMQFLCNVGHQQCIDTGRQNFLNWRNGSFIPANMRPWVYCTGLRYGSAEDFNYFWNRYIVEDLSNEKVVMLEAAGCTRDQASLEKFLNAIVSGNDDVRPQDHSSALSSAITSNDVNTMRAFDWLTKNVDQITRTLGSITSPLNTITSRLLTEAQMTQVQTWLDANRNTIGAAYNTGVNGIATSRANLQWSANRMSEFLRFFETGFVDDVPSEATTVAPPAETTVTPSTFPPTEAPATTPAPG
modifications: GPI anchor at the C-terminus; heterogeneously glycosylated (residues not stated)
notes: also called expressed APN; expressed 120 kDa APN
B1: no binding (tested: 1 µg/ml).
